How the values were obtained:
[1] = target: c-kit receptor of the W^v allele, on W^v/W^v mast cells (mouse) (UniProt P05532)
[2] = target: c-kit receptor (wild type), on mast cells and on NIH ψ2 cells expressing the c-kit cDNA (mouse) (UniProt P05532)

- proliferation of mast cells (^3H-thymidine incorporation) (% of +/+ values) [1]: 10
- half maximal proliferation of +/+ mast cells (^3H-thymidine incorporation) (ng of protein in 0.2 ml) [2]: 0.5
Substance: KL (c-kit ligand), soluble form purified from conditioned medium of Balb/3T3 fibroblasts (from UniProt P20826)

Reference: patent US20050276784A1
